Data from the supplement of paper PMC5998384.

What was measured:
HeLa Kyoto [1] = test: solubility change mitosis vs G1/S (difference of NP-40 vs SDS log2 ratios) (log2 ratio difference); higher = more soluble in mitosis
HeLa Kyoto [2] = test: solubility in G1/S (NP-40 vs SDS abundance) (log2 ratio); higher = more soluble; details: cell cycle stage: G1/S
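For solubility change mitosis vs G1/S (difference of NP-40 vs SDS log2 ratios) in this document: synchronized HeLa Kyoto cells (double thymidine block for G1/S, nocodazole release for mitosis), protein amounts in NP-40 versus SDS lysates quantified by mass spectrometry, three biological replicates.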
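For solubility in G1/S (NP-40 vs SDS abundance) in this document: HeLa Kyoto cells arrested at G1/S by double thymidine block, proteins quantified by TMT10plex mass spectrometry in mild NP-40 versus SDS extracts, three biological replicates.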

PCIF1, sequence (chain, as listed by the source): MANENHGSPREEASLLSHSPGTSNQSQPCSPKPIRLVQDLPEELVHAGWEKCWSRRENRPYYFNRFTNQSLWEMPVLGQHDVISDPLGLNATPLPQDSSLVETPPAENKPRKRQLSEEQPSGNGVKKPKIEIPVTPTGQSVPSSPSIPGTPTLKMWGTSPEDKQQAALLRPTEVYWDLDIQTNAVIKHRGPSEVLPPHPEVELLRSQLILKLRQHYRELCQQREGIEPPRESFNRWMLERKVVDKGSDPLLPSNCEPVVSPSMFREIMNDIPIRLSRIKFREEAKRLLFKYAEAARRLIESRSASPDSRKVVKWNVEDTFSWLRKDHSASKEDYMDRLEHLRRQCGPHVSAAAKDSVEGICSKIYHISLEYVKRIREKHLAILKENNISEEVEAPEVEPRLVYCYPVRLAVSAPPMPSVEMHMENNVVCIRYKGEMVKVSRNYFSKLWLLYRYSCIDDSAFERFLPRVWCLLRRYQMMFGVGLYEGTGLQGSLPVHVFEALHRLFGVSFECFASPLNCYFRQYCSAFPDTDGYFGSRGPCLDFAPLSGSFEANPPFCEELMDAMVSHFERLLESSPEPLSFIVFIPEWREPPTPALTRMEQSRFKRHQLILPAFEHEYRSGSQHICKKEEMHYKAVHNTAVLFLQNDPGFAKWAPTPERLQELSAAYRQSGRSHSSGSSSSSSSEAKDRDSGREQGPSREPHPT

Substance | solubility change mitosis (log2) (HeLa Kyoto [1]) | solubility in G1/S (log2) (HeLa Kyoto [2])
MGDNPFQPKSNSKMAELFMECEEEELEPWQKKVKEVEDDDDDEPIFVGEISSSKPAISNILNRVNPSSYSRGLKNGALSRGITAAFKPTSQHYTNPTSNPVPASPINFHPESRSSDSSVIVQPFSKPGYITNSSRVVSNKSSELLFDLTQDTGLSHYQGGPTLSMAGMSESSFLSKRPSTSEVNNVNPKKPKPSESVSGANSSAVLPSVKSPSVTSSQAMLAKGTNTSSNQSKNGTPFPRACPKCNIHFNLLDPLKNHMKYCCPDMINNFLGLAKTEFSSTVNKNTTIDSEKGKLIMLVNDFYYGKHEGDVQEEQKTHTTFKCFSCLKILKNNIRFMNHMKHHLELEKQSSESWENHTTCQHCYRQFPTPFQLQCHIESTHTPHEFSTICKICELSFETEHVLLQHMKDNHKPGEMPYVCQVCNYRSSSFSDVETHFRTSHENTKNLLCPFCLKVIKIATPYMHHYMKHQKKGIHRCTKCRLQFLTCKEKMDHKTQHHRTFIKPKQLEGLPPGTKVTIRASVGPLQSGASPTPSISASASTLQLSPPRTKNITAKNPAKSNTSKPNTVKSNASKPNTSKPNGSKSKYKPKISNMQKKQSTLASSNKKSKVNTALRNLRYRRGIHKCIECCSEIKDFANHFPTYVHCSFCRYNTSCSKAYVNHMMSFHSNRPSKRFCIFKKHSENLRGITLVCLNCDFLSDVSGLDNMATHLSQHKTHTCQVVMQKVSVCIPTSEHLSELKKEAPAKEQEPVSKEIARPNMAERETETSNSESKQDKAASSKEKNGCNANSFEGSSTTKSEESITVSDKENETCLADQETGSKNIVSCDSNIGADKVEKKKQIQHVCQEMELKMCQSSENIILSDQIKDHNSSEARFSSKNIKDLRLASDNVSIDQFLRKRHEPESVSSDVSEQGSIHLEPLTPSEVLEYEATEILQKGSGDPSAKTDEVVSDQTDDIPGGNNPSTTEATVDLEDEKERS [ZNF280D] | 0.447 | -0.86
MMFGGYETIEAYEDDLYRDESSSELSVDSEVEFQLYSQIHYAQDLDDVIREEEHEEKNSGNSESSSSKPNQKKLIVLSDSEVIQLSDGSEVITLSDEDSIYRCKGKNVRVQAQENAHGLSSSLQSNELVDKKCKSDIEKPKSEERSGVIREVMIIEVSSSEEEESTISEGDNVESWMLLGCEVDDKDDDILLNLVGCENSVTEGEDGINWSISDKDIEAQIANNRTPGRWTQRYYSANKNIICRNCDKRGHLSKNCPLPRKVRRCFLCSRRGHLLYSCPAPLCEYCPVPKMLDHSCLFRHSWDKQCDRCHMLGHYTDACTEIWRQYHLTTKPGPPKKPKTPSRPSALAYCYHCAQKGHYGHECPEREVYDPSPVSPFICYYDDKYEIQEREKRLKQKIKVLKKNGVIPEPSKLPYIKAANENPHHDIRKGRASWKSNRWPQENKETQKEMKNKNRNWEKHRKADRHREVDEDFPRGPKTYSSPGSFKTQKPSKPFHRSSHYHTSREDKSPKEGKRGKQKKKERCWEDDDNDNLFLIKQRKKKS [ZCCHC7] | 0.926 | -2.02
MASGVGAAFEELPHDGTCDECEPDEAPGAEEVCRECGFCYCRRHAEAHRQKFLSHHLAEYVHGSQAWTPPADGEGAGKEEAEVKVEQEREIESEAGEESESEEESESEEESETEEESEDESDEESEEDSEEEMEDEQESEAEEDNQEEGESEAEGETEAESEFDPEIEMEAERVAKRKCPDHGLDLSTYCQEDRQLICVLCPVIGAHQGHQLSTLDEAFEELRSKDSGGLKAAMIELVERLKFKSSDPKVTRDQMKMFIQQEFKKVQKVIADEEQKALHLVDIQEAMATAHVTEILADIQSHMDRLMTQMAQAKEQLDTSNESAEPKAEGDEEGPSGASEEEDT [TRIM44] | -0.202 | -0.118
MHQTLCLNPESLKMSACSDFVEHIWKPGSCKNCFCLRSDHQLVAGPPQPRAGSLPPPPRLPPRPENCRLEDEGVNSSPYSKPTIAVKPTMMSSEASDVWTEANLSAEVSQVIWRRAPGKLPLPKQEDAPVVYLGSFRGVQKPAGPSTSPDGNSRCPPAYTMVGLHNLEPRGERNIAFHPVSFPEEKAVHKEKPSFPYQDRPSTQESFRQKLAAFAGTTSGCHQGPGPLRESLPSEDDSDQRCSPSGDSEGGEYCSILDCCPGSPVAKAASQTAGSRGRHGGRDCSPTCWEQGKCSGPAEQEKRGPSFPKECCSQGPTAHPSCLGPKKLSLTSEAAISSDGLSCGSGSGSGSGASSPFVPHLESDYCSLMKEPAPEKQQDPGCPGVTPSRCLGLTGEPQPPAHPREATQPEPIYAESTKRKKAAPVPSKSQAKIEHAAAAQGQGQVCTGNAWAQKAASGWGRDSPDPTPQVSATITVMAAHPEEDHRTIYLSSPDSAVGVQWPRGPVSQNSEVGEEETSAGQGLSSRESHAHSASESKPKERPAIPPKLSKSSPVGSPVSPSAGGPPVSPLADLSDGSSGGSSIGPQPPSQGPADPAPSCRTNGVAISDPSRCPQPAASSASEQRRPRFQAGTWSRQCRIEEEEEVEQELLSHSWGRETKNGPTDHSNSTTWHRLHPTDGSSGQNSKVGTGMSKSASFAFEFPKDRSGIETFSPPPPPPKSRHLLKMNKSSSDLEKVSQGSAESLSPSFRGVHVSFTTGSTDSLASDSRTCSDGGPSSELAHSPTNSGKKLFAPVPFPSGSTEDVSPSGPQQPPPLPQKKIVSRAASSPDGFFWTQGSPKPGTASPKLNLSHSETNVHDESHFSYSLSPGNRHHPVFSSSDPLEKAFKGSGHWLPAAGLAGNRGGCGSPGLQCKGAPSASSSQLSVSSQASTGSTQLQLHGLLSNISSKEGTYAKLGGLYTQSLARLVAKCEDLFMGGQKKELHFNENNWSLFKLTCNKPCCDSGDAIYYCATCSEDPGSTYAVKICKAPEPKTVSYCSPSVPVHFNIQQDCGHFVASVPSSMLSSPDAPKDPVPALPTHPPAQEQDCVVVITREVPHQTASDFVRDSAASHQAEPEAYERRVCFLLLQLCNGLEHLKEHGIIHRDLCLENLLLVHCTLQAGPGPAPAPAPAPAPAAAAPPCSSAAPPAGGTLSPAAGPASPEGPREKQLPRLIISNFLKAKQKPGGTPNLQQKKSQARLAPEIVSASQYRKFDEFQTGILIYELLHQPNPFEVRAQLRERDYRQEDLPPLPALSLYSPGLQQLAHLLLEADPIKRIRIGEAKRVLQCLLWGPRRELVQQPGTSEEALCGTLHNWIDMKRALMMMKFAEKAVDRRRGVELEDWLCCQYLASAEPGALLQSLKLLQLL [SGK223] | -0.132 | -0.249
PCIF1 | -0.0368 | 0.0856
MNLQAQPKAQNKRKRCLFGGQEPAPKEQPPPLQPPQQSIRVKEEQYLGHEGPGGAVSTSQPVELPPPSSLALLNSVVYGPERTSAAMLSQQVASVKWPNSVMAPGRGPERGGGGGVSDSSWQQQPGQPPPHSTWNCHSLSLYSATKGSPHPGVGVPTYYNHPEALKREKAGGPQLDRYVRPMMPQKVQLEVGRPQAPLNSFHAAKKPPNQSLPLQPFQLAFGHQVNRQVFRQGPPPPNPVAAFPPQKQQQQQQPQQQQQQQQAALPQMPLFENFYSMPQQPSQQPQDFGLQPAGPLGQSHLAHHSMAPYPFPPNPDMNPELRKALLQDSAPQPALPQVQIPFPRRSRRLSKEGILPPSALDGAGTQPGQEATGNLFLHHWPLQQPPPGSLGQPHPEALGFPLELRESQLLPDGERLAPNGREREAPAMGSEEGMRAVSTGDCGQVLRGGVIQSTRRRRRASQEANLLTLAQKAVELASLQNAKDGSGSEEKRKSVLASTTKCGVEFSEPSLATKRAREDSGMVPLIIPVSVPVRTVDPTEAAQAGGLDEDGKGPEQNPAEHKPSVIVTRRRSTRIPGTDAQAQAEDMNVKLEGEPSVRKPKQRPRPEPLIIPTKAGTFIAPPVYSNITPYQSHLRSPVRLADHPSERSFELPPYTPPPILSPVREGSGLYFNAIISTSTIPAPPPITPKSAHRTLLRTNSAEVTPPVLSVMGEATPVSIEPRINVGSRFQAEIPLMRDRALAAADPHKADLVWQPWEDLESSREKQRQVEDLLTAACSSIFPGAGTNQELALHCLHESRGDILETLNKLLLKKPLRPHNHPLATYHYTGSDQWKMAERKLFNKGIAIYKKDFFLVQKLIQTKTVAQCVEFYYTYKKQVKIGRNGTLTFGDVDTSDEKSAQEEVEVDIKTSQKFPRVPLPRRESPSEERLEPKREVKEPRKEGEEEVPEIQEKEEQEEGRERSRRAAAVKATQTLQANESASDILILRSHESNAPGSAGGQASEKPREGTGKSRRALPFSEKKKKTETFSKTQNQENTFPCKKCGR [ELMSAN1] | 0.257 | -0.0645
MAAWSPAAAAPLLRGIRGLPLHHRMFATQTEGELRVTQILKEKFPRATAIKVTDISGGCGAMYEIKIESEEFKEKRTVQQHQMVNQALKEEIKEMHGLRIFTSVPKR [BOLA3] | 0.234 | 0.378
MDPQPPPPAQGSPPHRGRGRGRGRGRGRGRGRGRGGAGAPRAPLPCPTCGRLFRFPYYLSRHRLSHSGLRPHACPLCPKAFRRPAHLSRHLRGHGPQPPLRCAACPRTFPEPAQLRRHLAQEHAGGEVELAIERVAKETAEPSWGPQDEGSEPPTTAAAGATEEEAVAAWPETWPAGEPSTLAAPTSAAEPRESESEEAEAGAAELRAELALAAGRQEEKQVLLQADWTLLCLRCREAFATKGELKAHPCLRPEGEQEGEGGPPPRPKRHQCSICLKAFARPWSLSRHRLVHSTDRPFVCPDCGLAFRLASYLRQHRRVHGPLSLLAPLPAAGKKDDKASGARNSAKGPEGGEGAECGGASEGGEGQNGGDAAPARPPAGEPRFWCPECGKGFRRRAHLRQHGVTHSGARPFQCVRCQREFKRLADLARHAQVHAGGPAPHPCPRCPRRFSRAYSLLRHQRCHRAELERAAALQALQAQAPTSPPPPPPPLKAEQEEEGLPLPLANIKEEPPSPGTPPQSPPAPPVFLSASCFDSQDHSAFEMEEEEVDSKAHLRGLGGLAS [ZNF579] | 0.288 | -0.0421
MNYPGRGSPRSPEHNGRGGGGGAWELGSDARPAFGGGVCCFEHLPGGDPDDGDVPLALLRGEPGLHLAPGTDDHNHHLALDPCLSDENYDFSSAESGSSLRYYSEGESGGGGSSLSLHPPQQPPLVPTNSGGGGATGGSPGERKRTRLGGPAARHRYEVVTELGPEEVRWFYKEDKKTWKPFIGYDSLRIELAFRTLLQTTGARPQGGDRDGDHVCSPTGPASSSGEDDDEDRACGFCQSTTGHEPEMVELVNIEPVCVRGGLYEVDVTQGECYPVYWNQADKIPVMRGQWFIDGTWQPLEEEESNLIEQEHLNCFRGQQMQENFDIEVSKSIDGKDAVHSFKLSRNHVDWHSVDEVYLYSDATTSKIARTVTQKLGFSKASSSGTRLHRGYVEEATLEDKPSQTTHIVFVVHGIGQKMDQGRIIKNTAMMREAARKIEERHFSNHATHVEFLPVEWRSKLTLDGDTVDSITPDKVRGLRDMLNSSAMDIMYYTSPLYRDELVKGLQQELNRLYSLFCSRNPDFEEKGGKVSIVSHSLGCVITYDIMTGWNPVRLYEQLLQKEEELPDERWMSYEERHLLDELYITKRRLKEIEERLHGLKASSMTQTPALKFKVENFFCMGSPLAVFLALRGIRPGNTGSQDHILPREICNRLLNIFHPTDPVAYRLEPLILKHYSNISPVQIHWYNTSNPLPYEHMKPSFLNPAKEPTSVSENEGISTIPSPVTSPVLSRRHYGESITNIGKASILGAASIGKGLGGMLFSRFGRSSTTQSSETSKDSMEDEKKPVASPSATTVGTQTLPHSSSGFLDSAYFRLQESFFNLPQLLFPENVMQNKDNALVELDHRIDFELREGLVESRYWSAVTSHTAYWSSLDVALFLLTFMYKHEHDDDAKPNLDPI [DDHD1] | 0.134 | -0.175
